Assay results reported in paper PMC3071548 (Molecular microbiology, 2010).

Target: the molecule itself
Experiment: SEC

B1: YgbT, purified full-length protein (natural protein, E. coli, UniProt Q46896 1-305, looked up)
chain: MTWLPLNPIPLKDRVSMIFLQYGQIDVIDGAFVLIDKTGIRTHIPVGSVACIMLEPGTRVSHAAVRLAAQVGTLLVWVGEAGVRVYASGQPGGARSDKLLYQAKLALDEDLRLKVVRKMFELRFGEPAPARRSVEQLRGIEGSRVRATYALLAKQYGVTWNGRRYDPKDWEKGDTINQCISAATSCLYGVTEAAILAAGYAPAIGFVHTGKPLSFVYDIADIIKFDTVVPKAFEIARRNPGEPDREVRLACRDIFRSSKTLAKLIPLIEDVLAAGEIQPPAPPEDAQPVAIPLPVSLGDAGHRSS
  stoichiometry N: 2
